Consider three substances from publication PMC2685083.

The target of assay [1] is myc-tagged β^+/his6-tagged β^C heterodimer (E. coli) (UniProt P0A988). The experiment in a line: SPR. (In general: SPR reads the build-up and loss of mass on a sensor chip optically.)
Assay [2] has as its target β^+–δ1 complex (his6-tagged β^+ homodimer with one tightly bound δ) (E. coli) (UniProt P0A988). The experiment in a line: SPR.

Consider “DnaX clamp loader complex, γ3δδ′χψ form (from UniProt P06710-2;P28630;P28631;P28905;P28632)”, for which the off rate relative to that from β^+ in assay [1] was found to be 2 fold.

In assay [1], “α catalytic subunit of Pol III (from UniProt P10443 1-1160) (enzyme)” returned a dissociation constant Kd of 0.172 µM, a koff of 0.0125 s⁻¹ and an on-rate constant (kon) of 72700 M⁻¹ s⁻¹.

For “δ subunit of the DnaX clamp loader complex (from UniProt P28630 1-343) (natural protein)”, the results for the Kd in assay [1] and in assay [2] were 0.0156 µM and 0.16 µM, respectively. Further, in assay [1], the stoichiometry N turned out to be 1.

As usually defined, the Kd is the concentration at which binding is half-saturated. Lower therefore signals a tighter complex. Usually koff stands for the rate constant with which the complex falls apart. Higher therefore signals fast dissociation. The kon is the second-order rate constant of association. A higher kon goes with faster complex formation. The term stoichiometry N denotes the number of molecules, sites or subunits per partner or assembly.
